From the supplement of paper PMC9170038

Test system: K4 kissing-loop RNA reporter
Experiment: apparent KD of K4 kissing-loop reporter; higher = weaker reporter binding
Settings: Eterna round: R107; input ligand: FMN 200 uM
Description: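 RNA-MaP round R107: designed RNA switches with theophylline, tryptophan, arginine or FMN aptamers are transcribed on-chip within common flanks. They are titrated with a labelled K4 kissing-loop RNA reporter in RNA-MaP buffer (100 mM Tris pH 7.5, 80 mM KCl, 4 mM MgCl2), without ligand or with the indicated ligand. Median apparent KD per design.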
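Further: bound reporter read as fluorescence of individual clusters on recovered sequencing chips by microscopy, with normalized cluster intensities fitted with a binding model.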

Point of comparison: “CAUACGCAUGGAGGAUAUGAGAUUUCUCAUAUUAUUUAAUAUUCUCAGUGAUGUUGAGAAUUUAACUCAGAAGGCCAUGUGUAUG [Ex FMN B 5]”, “apparent KD of K4 kissing-loop reporter” value 316 nM. Against it:
- GCGCGUCAUGGCGGCGGUGACUACGCCGAUACCAGCCGGGAAACCGGCCCUUGGCAGCGGCGCGCCGGAGUGAUGUUCCGACAGA [#2 Exclusion - Theophylline A Attempt #4 (HarryS)] — within 1.5-fold, 226 nM
- GGUAGCAUGGCGGCCGCCACUAGAUCAGUGAUGUUGAUCCCGCCGUCUUACGGCGAGUCAGAGGCUAGGACCGGGCCAUGCUACC — 1.9-fold higher, 601 nM
- UGAUGUUUAGGUCACCCAGUGAUGUUGGAAGGAGCGUGCGAAAGCACAGGUAGGUCGCCAAUCUCCUUGUGACCUGAGCAUCUAA [#SwitchBubble 14 #K4Early] — 3.1-fold higher, 976 nM
- UUAUUAAUAACAGAUACCAGUCCAGAAUGAAUACUAUAGUGAUGUUAUAAUAAAGGGAAGGACCCUUGGCAGCUGUAAUAUAUUU [AstrosSSTheB#1] — within 1.5-fold, 431 nM
- AAGUCUCGUUAAUUCGUGGUUUCGAUCGAUACCAGUAGCGAGAGUUACCCUUGGCAGCGAAAUGAGUGAUGUUCAUGAAAGAAGA [KL-XTheoA10] — 4.9-fold lower, 65.1 nM
- CAUACGCAUGGAGGAUAUGAGAUUUUUCAUAUUACUUUUUAUUCUCAGUGAUGUUGGGAUUUGUAAUCAGAAGGCCAUGUGUAUG [#10 K4 FMN B Exclusion] — 1.8-fold lower, 174 nM
- GGAAGGAAGGGAAGGAGCGCGCAGGCAGUGAUGUUGCCAAACAAAACAAACAAAACAAAAGCGCAGGUAGGUCGCCCGAAGGACG — 4.7-fold lower, 67.8 nM
- GACUACCGGGCGGCCGCCACUGGGCUCCGAGUGAUGUUCGGAAAGACUCAUACACUGCUGUCAGACAGGACCGGGCCAAGGCGCA [theeternabot_sameState_KL_Trp_B_5] — 2.2-fold lower, 145 nM
- GCGUUCAUGGCAGGAUAUAGGUAAAGGAGUGAUGUUCCUUAUGUUGCAUUUACUUAAUCCAACUCCCUAGAAGGGCCAUGAACGC — 2.6-fold lower, 123 nM
- CGCAGUGAUGUUGCGAGUAGCUACAGGGAAGGAGCGCGCUAGUGCGCAGGUAGGUCGCCCACGCAGUGAUGUUGCGUCAUAGGGU [Exclusion Arg A GF8] — 2.3-fold lower, 139 nM
- UCCUUAUCGCGGUCAUAAAGCCUAUAAAACAAGGAUAUCUCAUCAGAGAGAAGGUGUGAGUGAUGUUCAAAGGCCACCACGGGUU [theeternabot_sameState_KL_FMN_A_47] — 2.1-fold higher, 654 nM
- GGGCAUGUUAAAGGAUAUAGCAGGUGAUACAAGAAAGUGAGUGAUGUUUAUGUAGAUGAUGAUAUGUUAGAAGGUUAACAAAACC [abcdefghijklm] — 1.9-fold higher, 597 nM
- UGUCAUUGGUCGGCCGCCACUUCAUGUAGAGUGAUGUUCUGUAAGACGGAUCGAAAGAUCUGUCGAAGGACCGGGACCGAUGACU [FiskerMod 13 - Jieux - Same State - Tryptophan B] — 3.4-fold higher, 1090 nM
- AUUUAAUGUAUAGAUUAUAUACAUAAUUCAGAGGAUAUGCAUAGAAGCAGAAGGCUGGUUGCAGUGAUGUUGCUUUUUUAAUUUA [JR_SSFMNA_Sub008] — 10-fold lower, 30.9 nM
- AAAAUAAUCCAGUGAUGUUGGUAUCCAGAUACCAGCCAGGAAACUGGCCCUUGGCAGCUGUGGACGUACAAAAUAAGUACGUCCU [#OpenEnded 10 #StaticStem #K4Early] — 1.5-fold higher, 481 nM
- UGUAAUGAGUGAUGUUCAUGUAGUAAGGAUACCAGUAAUUCAAAAUGCCCUUGGCAGCUUAGUUCUAUCUAUAGUUGGGUAGUGG [Theophilline A V4 (+5U)] — 2-fold lower, 162 nM
- AAGGGCGAGGUAACGUGGAUAUCUCGUCGCAAGGAUAUCUGGAAACAGAGAAGGUGCUACAUUACCGGCAGUGAUGUUGCUGACC — 2.8-fold higher, 887 nM
- AAUGGAGGCUGAAGGAGCGCCGCCAGUGAUGUUGGGAGUUAGAUACCAGUGAUGUUGGGCCGGCAGGUAGGUCGCGGUUUUUAUU [Exclusion Arginine B Gf 16] — 1.7-fold lower, 186 nM
- GCAGUCAAUCGACCACGAAAGUGGAUGGAUACCAGCCCGAAACCGGGCCCUUGGCAGCCAGUGAUGUUGGAAGACUGCUUUAAAA [#SwitchBubble 14 #K4Late] — within 1.5-fold, 371 nM
- UGACAUUGCUCAGAUACCAGACUUGAGGAACACCCAAGUGCCAAAUACGUACAAAUAAAAGUCCCUUGGCAGCUGAGCAAUGUCU [TheoBX 12] — 5.4-fold lower, 58.3 nM
- UCUGAAGGUGGAGGAUAUUGAUUGAAUCUUGGUCAGGAGUGAUGUUCCGGGAAGCCUUGGAUUCAUCGAGAAGGCCAAGGAUAGU [#10 K4 FMN B Same State] — 2.2-fold lower, 144 nM
- UAAAUUAAGCUUUGCUGAUUAAUAAGCGAUACCAGCAAAUAAUGAUGCCCUUGGCAGCGUUAUAAUCUAGUGAUGUUAGAUUAGU [Not much to say about this one] — 3.4-fold lower, 92.6 nM
- UAUAAUUCGGCGGCCGCCACUGACCAUAGCCUUCGAUGGCCAGUGAUGUUGGCCUCUGGCUCUAACAGGACCGGGCCGAAUUGCG [Aririmaus] — within 1.5-fold, 228 nM
- UCGAUGGCCAGCGAUACCAGCCCAGUGAUGUUGGGCACAUGGUUGCGGGAAAUCCCAUUGGGCCCUUGGCAGCGCUUGCAUGGGU [Dizaisa] — 2.1-fold lower, 148 nM
- AAAUUUAAUAUAUUUAAUUAAUUAUGUGAUACCAGACAUUUAUAAGUCCCUUGGCAGCACUUUGCAGUGAUGUUGCAUAUAAUAA [JR_SSTheophyA_Sub013] — 3.6-fold lower, 89 nM
- UGAUUUAACUGAAGGAGCGGCAAUUGAUAAGUAAAUAUAGUGAUGUUAUAUAAGAUAGAGAGCCAGGUAGGUCGCAGAGGGAGGA [ExArgB.J] — 1.9-fold lower, 169 nM
- CCAGGUUGCCGCAACGACCUGGAUUUUAGGGAGGAUAUCCAGAGCAGGAGAAGGCCCAGUGAUGUUGGGCCUGUGGAGCCCAUAU [Ararensoza] — within 1.5-fold, 274 nM
- CUCGAGUGAUGUUCGAUUAUUUAUACAGAUACCAGUGAAUUUUAACACCCUUGGCAGCUGGUUGUAUCUUUGUUUUUUACACAAG [JR_ExcTheophyA_Sub006] — 2.7-fold lower, 117 nM
- UAAUCCUAGUGAUCCUUAUCAAGUGGUGGGCGAGGACCGGUACGGCCGCCACUCGAAUAUGCAGUGAUGUUGUAAUCCGGAUAAU [Exclusion - Tryptophan A (Freestyle 9)] — 1.8-fold higher, 568 nM
- UGUCAUUGGUCGGCCGCCACUAGGACCGGGUUUUACCUAGUGAUGUUAGUAUAAACGGCCGCCACUAGGACCGGGACCGAUGACU [KL-SSTryp-B24 #DoubleAptamer] — 2.7-fold higher, 846 nM
- AAUCAAUACAGAAGGAGCGUGACAAUUACUAUUGAUUCAGGAGCUAGUGAUGUUAGCAUUUCACAGGUAGGUCGCUGUACAUUUA [JR_SSArginiB_Sub013] — 1.9-fold lower, 165 nM
- GCCGUAGAUUGAAGGAGCGAGUAGGCUCACUUGCGAAGUGAAUAGCAGAGUGAUGUUCUGUCUCAGGUAGGUCGCAAUCUACGGC — 2.2-fold higher, 701 nM
- UAUUUGAUGUCAGGAUAUCGUAUACGAGUGAUGUUCGUAUUUCUACUAUAGAUUAUUUAAAUUUUUCGAGAAGGGACAACAUUUA [#04 K4 FMN B Same State] — 2.1-fold lower, 151 nM
- UAGUCAUACAGAGGAUAUCGUAUGAGUGAUGUUCAAGUGCGUACAUCAACUUGAUGUACAGAUAGACGAGAAGGCUGUAUGACUA [FMB B SS t6] — within 1.5-fold, 303 nM
- AAGAGAUCGAGAAGGAGCGAGAAAGCUAGUACAUAUGUACUAGCAAAGCAGUGAUGUUGCACUCAGGUAGGUCGCUCGAUCUCAA [AK1 SS Arginine B] — within 1.5-fold, 395 nM
- GGGCUAUAGUGAUGUUAUUGUCUAAACGAUACCAGUUCACCCGUGAACCCUUGGCAGCGUGGUGUAACCUAUCCUCGUUGCACUG [theeternabot_sameState_KL_Theo_A_28] — 2-fold higher, 640 nM
- GUCCACACUGCAGGAUAUGGAGGUAUAGCGAGGGAGUUUGGAAGCACACCUCUGGCAGUGAUGUUGCCAGAAGGGCGGUGCGGCG [Rauserin] — 3.8-fold lower, 82.4 nM
- UGUAUGUGAUGUGAUACCAGUGAAGAGCCAGUGAUGUUGGUAGAACUGGUAUAUAAAUAACACCCUUGGCAGCACAGUCACGUAC [whbob_Ex_Theo_B_sa100] — within 1.5-fold, 305 nM
- AAUAAUGGAGUGAUGUUCCAGUAAUGGGAUACCAGACAUGAAAAUGUCCCUUGGCAGCUCAAAGGUCUAGUGAUGUUAGAAAGAA [KL-SSTheo-A5 #Double Kiss] — within 1.5-fold, 273 nM
- AGGAUGUAGUGAUGUUAUAUAAGAAGUAGACGAGGACCGGUACGGCCGCCACUCGAAACGGCUACUAGCGCGUUGCGAGGUGUGC [ExTryptoA.Cg] — 1.8-fold higher, 576 nM
- AGGUCACGAGGAAGGAGCGCCCUGACAGGUUGCUGCCGUGGGCAGUGAUGUUGCUCAGUCCGGCAGGUAGGUCGCCUCGUGACCU — 2.1-fold lower, 151 nM
- AGAGUUUUAUGAGGAUAUGAGAUAGUUAAUGAGUGAGUUAUAGUGUAGUUUGGUUAGUGAUGUUAUUUAGAAGGCGUGAGUGAUG [zzfzmullin] — 1.5-fold lower, 205 nM

Same assay, conditions: Eterna round: R107; input ligand: arginine 13.2 mM

Point of comparison: “CAUACGCAUGGAGGAUAUGAGAUUUUUCAUAUUACUUUUUAUUCUCAGUGAUGUUGGGAUUUGUAAUCAGAAGGCCAUGUGUAUG [#10 K4 FMN B Exclusion]”, “apparent KD of K4 kissing-loop reporter” value 93.2 nM. Against it:
- GCGCGUCAUGGCGGCGGUGACUACGCCGAUACCAGCCGGGAAACCGGCCCUUGGCAGCGGCGCGCCGGAGUGAUGUUCCGACAGA [#2 Exclusion - Theophylline A Attempt #4 (HarryS)] — 3-fold higher, 275 nM
- GGUAGCAUGGCGGCCGCCACUAGAUCAGUGAUGUUGAUCCCGCCGUCUUACGGCGAGUCAGAGGCUAGGACCGGGCCAUGCUACC — 3.4-fold higher, 318 nM
- CAUACGCAUGGAGGAUAUGAGAUUUCUCAUAUUAUUUAAUAUUCUCAGUGAUGUUGAGAAUUUAACUCAGAAGGCCAUGUGUAUG [Ex FMN B 5] — 1.6-fold higher, 149 nM
- UGAUGUUUAGGUCACCCAGUGAUGUUGGAAGGAGCGUGCGAAAGCACAGGUAGGUCGCCAAUCUCCUUGUGACCUGAGCAUCUAA [#SwitchBubble 14 #K4Early] — 8.4-fold higher, 787 nM
- UUAUUAAUAACAGAUACCAGUCCAGAAUGAAUACUAUAGUGAUGUUAUAAUAAAGGGAAGGACCCUUGGCAGCUGUAAUAUAUUU [AstrosSSTheB#1] — 4.1-fold higher, 381 nM
- AAGUCUCGUUAAUUCGUGGUUUCGAUCGAUACCAGUAGCGAGAGUUACCCUUGGCAGCGAAAUGAGUGAUGUUCAUGAAAGAAGA [KL-XTheoA10] — within 1.5-fold, 101 nM
- GGAAGGAAGGGAAGGAGCGCGCAGGCAGUGAUGUUGCCAAACAAAACAAACAAAACAAAAGCGCAGGUAGGUCGCCCGAAGGACG — within 1.5-fold, 92.8 nM
- GACUACCGGGCGGCCGCCACUGGGCUCCGAGUGAUGUUCGGAAAGACUCAUACACUGCUGUCAGACAGGACCGGGCCAAGGCGCA [theeternabot_sameState_KL_Trp_B_5] — 1.8-fold higher, 170 nM
- GCGUUCAUGGCAGGAUAUAGGUAAAGGAGUGAUGUUCCUUAUGUUGCAUUUACUUAAUCCAACUCCCUAGAAGGGCCAUGAACGC — 1.5-fold higher, 140 nM
